Measured values published in patent publication US20230340555A1, “PRODUCTION OF GLYCOSYLATED CANNABINOIDS” (WILLOW BIOSCIENCES, INC., priority 2020, published 2023).

B1: SrUGT76G1: UDP-glycosyl transferase from Stevia rebaudiana, amino acid sequence SEQ ID NO: 20 (protein, listed as Stevia rebaudiana)
chain: MENKTETTVRRRRRIILFPVPFQGHINPILQLANVLYSKGFSITIFHTNFNKPKTSNYPHFTFRFILDNDPQDERISNLPTHGPLAGMRIPIINEHGADELRRELELLMLASEEDEEVSCLITDALWYFAQSVADSLNLRRLVLMTSSLFNFHAHVSLPQFDELGYLDPDDKTRLEEQASGFPMLKVKDIKSAYSNWQILKEILGKMIKQTRASSGVIWNSFKELEESELETVIREIPAPSFLIPLPKHLTASSSSLLDHDRTVFQWLDQQPPSSVLYVSFGSTSEVDEKDFLEIARGLVDSKQSFLWVVRPGFVKGSTWVEPLPDGFLGERGRIVKWVPQQEVLAHGAIGAFWTHSGWNSTLESVCEGVPMIFSDFGLDQPLNARYMSDVLKVGVYLENGWERGEIANAIRRVMVDEEGEYIRQNARVLKQKADVSLMKGGSSYESLESLVSYISSL
B2: AtUGT71 D1: UDP-glycosyl transferase from Arabidopsis thaliana, amino acid sequence SEQ ID NO: 8 (protein, listed as Arabidopsis thaliana)
chain: MRNVELIFIPTPTVGHLVPFLEFARRLIEQDDRIRITILLMKLQGQSHLDTYVKSIASSQPFVRFIDVPELEEKPTLGSTQSVEAYVYDVIERNIPLVRNIVMDILTSLALDGVKVKGLVVDFFCLPMIDVAKDISLPFYVFLTTNSGFLAMMQYLADRHSRDTSVFVRNSEEMLSIPGFVNPVPANVLPSALFVEDGYDAYVKLAILFTKANGILVNSSFDIEPYSVNHFLQEQNYPSVYAVGPIFDLKAQPHPEQDLTRRDELMKWLDDQPEASVVFLCFGSMARLRGSLVKEIAHGLELCQYRFLWSLRKEEVTKDDLPEGFLDRVDGRGMICGWSPQVEILAHKAVGGFVSHCGWNSIVESLWFGVPIVTWPMYAEQQLNAFLMVKELKLAVELKLDYRVHSDEIVNANEIETAIRYVMDTDNNVVRKRVMDISQMIQRATKNGGSSFAAIEKFIYDVIGIKP
B3: At5g49690: UDP-glycosyl transferase from Arabidopsis thaliana, amino acid sequence SEQ ID NO: 18 (protein, listed as Arabidopsis thaliana)
chain: MVDKREEVMHVAMFPWLAMGHLLPFLRLSKLLAQKGHKISFISTPRNIERLPKLQSNLASSITFVSFPLPPISGLPPSSESSMDVPYNKQQSLKAAFDLLQPPLKEFLRRSSPDWIIYDYASHWLPSIAAELGISKAFFSLFNAATLCFMGPSSSLIEEIRSTPEDFTVVPPWVPFKSNIVFRYHEVTRYVEKTEEDVTGVSDSVRFGYSIDESDAVFVRSCPEFEPEWFGLLKDLYRKPVFPIGFLPPVIEDDDAVDTTWVRIKKWLDKQRLNSVVYVSLGTEASLRHEEVTELALGLEKSETPFFWVLRNEPKIPDGFKTRVKGRGMVHVGWVPQVKILSHESVGGFLTHCGWNSVVEGLGFGKVPIFFPVLNEQGLNTRLLHGKGLGVEVSRDERDGSFDSDSVADSIRLVMIDDAGEEIRAKAKVMKDLFGNMDENIRYVDELVRFMRSKGSSSSS
B4: AtUGT73C6: UDP-glycosyl transferase from Arabidopsis thaliana, amino acid sequence SEQ ID NO: 4 (protein, listed as Arabidopsis thaliana)
chain: MAFEKNNEPFPLHFVLFPFMAQGHMIPMVDIARLLAQRGVLITIVTTPHNAARFKNVLNRAIESGLPINLVQVKFPYQEAGLQEGQENMDLLTTMEQITSFFKAVNLLKEPVQNLIEEMSPRPSCLISDMCLSYTSEIAKKFKIPKILFHGMGCFCLLCVNVLRKNREILDNLKSDKEYFIVPYFPDRVEFTRPQVPVETYVPAGWKEILEDMVEADKTSYGVIVNSFQELEPAYAKDFKEARSGKAWTIGPVSLCNKVGVDKAERGNKSDIDQDECLEWLDSKEPGSVLYVCLGSICNLPLSQLLELGLGLEESQRPFIWVIRGWEKYKELVEWFSESGFEDRIQDRGLLIKGWSPQMLILSHPSVGGFLTHCGWNSTLEGITAGLPMLTWPLFADQFCNEKLVVQILKVGVSAEVKEVMKWGEEEKIGVLVDKEGVKKAVEELMGESDDAKERRRRAKELGESAHKAVEEGGSSHSNITFLLQDIMQLAQSNN

Tests used:
[1] = cited from earlier work
[2] = test system: CN3 yeast strain host cells; assay: Detection of glycosylated cannabinoids and cannabinoid precursors in yeast cells expressing UDP-glycosyl transferase (HPLC-MS); type: cell-based; parameters: key to CBDA-glc / OLA-glc / CBGA-glc / CBGA-(glc)2 / CBD-glc / CBD-(glc)2 / OLA-(glc)2 / CBGA-glucuronic acid: (+) represents the lowest detected quantities; (++), (+++), and (++++) signify relative increasing intermediate detected levels; (++), (+++), and (++++) signify relative increasing intermediate detected levels; (++), (+++), and (++++) signify relative increasing intermediate detected levels; (+++++) represents the highest detected quantities; No detectable levels of a glycosylated cannabinoid compound or glycosylated cannabinoid precursor compound are indicated by “n.d.”; conditions: for production of glycosylated cannabinoids or cannabinoid precursor compounds: pellet or supernatant of recombinant yeast host cells transformed with the UGT; for CBD-glc / CBD-(glc)2: 0.5 g/L CBD
Method in brief: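 CN3 yeast host cells carrying a heterologous UDP-glycosyl transferase gene were grown overnight in YPD, then diluted into YPG to OD600 = 0.2 and shaken at 600 RPM and 28° C. Cell pellets and supernatants were extracted for 1 hour in 80 % Acetonitrile/20 % Methanol, centrifuged at 12,000 RPM, filtered (0.22 µm), and checked for glycosylated cannabinoids and precursors by HPLC and negative-mode ESI QToF HPLC-MS.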

[3] = test system: bacterial strain BL21 (DE3); assay: CBDA depletion in BL21 (DE3) strains expressing UGTs (UHPLC-MS); type: cell-based; conditions: 0.1 mM CBDA, induced with 100 µM IPTG for 4h at 37° C. vs controls without induction
Text: The following cDNAs encoding UGTs from Arabidopsis thaliana, Cannabis sativa and Helianthus annuus UGTs were cloned into pDONOR-zeo (as described in Example 1) and then recombined into the prokaryotic expression vector pDEST14: AtUGT73C6 (SEQ ID NO: 3), AtUGT88A1 (SEQ ID NO: 5), AtUGT71 D1 (SEQ ID NO: 7), AtUGT73B4 (SEQ ID NO: 9), AtUGT76C4 (SEQ ID NO: 11), AtUGT76E12 (SEQ ID NO: 13), and At5g49690 (SEQ ID NO: 17), CsUGT73C6 (SEQ ID NO: 15), HaUGT76G1L (SEQ ID NO: 1), and SrUGT76G1 (SEQ ID NO: 19). Host cells from the bacterial strain BL21 (DE3) were transformed individually pDEST14 vector.
A BL21 (DE3) single colony was inoculated in liquid media and incubated at 37° C. overnight. The bacterial cultures were diluted to a final 0.6 OD and CBDA was added to a final concentration of 0.1 mM. The cultures were split, and half was induced with 100 µM IPTG for 4h at 37° C. to express the UGTs and the other half was kept as controls without induction of UGT expression.
Subsequently, samples were treated with a 1:1 volume of acetonitrile for 15 minutes at 250 RPM. After 30 minutes centrifugation at 4,000 RPM, samples were diluted 1000-fold in the same solvent for further analysis.
CBDA depletion was assayed employing UHPLC-MS analysis. The instrument used was a Thermo Vanquish UHPLC connected to a Thermo TSQ Altis mass spectrometer. The UHPLC consists of a vacuum degasser, a ternary pump, a thermostated autosampler held at 5° C., and a thermostated column compartment. An Accucore C18 (150 × 2.2 mm, 2.6 µm, Thermo, USA) was used. The mobile phase is water with 0.1 % formic acid (A) and acetonitrile with 0.1 % formic acid (B) on a linear gradient (see Table 5). The flow rate was set at 0.800 mL/min. The column temperature was set at 30° C. The sample injection volume was 1 µL.
MS analyses were carried out in order to ensure the identity of the peaks and were performed on a Thermo TSQ Altis triple quadrupole mass spectrometer using electrospray ionization in negative mode. Compounds were analyzed using selected reaction monitoring using two ion pairs for quantitation and confirmation respectively.

[4] = 20 h growth, detected in PELLET, 0.05 mM hexanoic acid
[5] = 20 h growth, detected in PELLET
[6] = 20 h growth, detected in SUPERNATANT, 0.2 mM hexanoic acid
[7] = 20 h growth, detected in SUPERNATANT

| Molecule | solubility in water [1] | production of glycosylated cannabinoids or cannabinoid precursor compounds [2] | decrease in CBDA content [3] [%] | CBDA-glc [2, 4] | CBGA-glc [2, 4] | OLA-glc [2, 4] | CBD-glc [2, 5] | OLA-glc [2, 6] | CBD-glc [2, 7] | CBGA-(glc)2 [2, 4] | CBGA-glucuronic acid [2, 4] | OLA-(glc)2 [2, 4] | CBD-(glc)2 [2, 5] | CBGA-(glc)2 [2, 6] | CBGA-glc [2, 6] | CBD-(glc)2 [2, 7] |
| --- | --- | --- | --- | --- | --- | --- | --- | --- | --- | --- | --- | --- | --- | --- | --- | --- |
| CCCCCc1cc(O)c2c(c1)OC(C)(C)C1CCC(C)=CC21 (centres unmarked) [Δ^9-THC, Δ^9-tetrahydrocannabinol] | less than 0.01 mg/ml | – | – | – | – | – | – | – | – | – | – | – | – | – | – | – |
| B1 | – | No production | 21 | – | – | – | – | – | – | – | – | – | – | – | – | – |
| B2 | – | detected | 9 | ++ | + | ++ | +++ | ++ | +++ | – | – | – | – | – | – | – |
| B3 | – | detected | 9 | + | – | – | – | – | – | – | – | – | – | – | – | – |
| B4 | – | detected | 12 | +++ | ++++ | +++ | +++ | +++ | +++ | ++ | ++ | ++ | ++ | + | + | ++ |
